According to patent US10260068B2, “Prophylactic agent and therapeutic agent for fibrodysplasia ossificans progressiva” (Sumitomo Dainippon Pharma Co., Ltd., priority 2014, dated 2019):

T1: wild type ACVR1 (Homo sapiens, UniProt Q04771)
T1 construct: an iPS cell line with the ACVR1 gene mutation repaired to the normal type (wild type) by gene repair by a BAC knockin vector; endogenous in cells; host or cells: mesenchymal stem cell-like cells differentiated from the gene-corrected iPS cell clone
T1 sequence (Q04771 21-509): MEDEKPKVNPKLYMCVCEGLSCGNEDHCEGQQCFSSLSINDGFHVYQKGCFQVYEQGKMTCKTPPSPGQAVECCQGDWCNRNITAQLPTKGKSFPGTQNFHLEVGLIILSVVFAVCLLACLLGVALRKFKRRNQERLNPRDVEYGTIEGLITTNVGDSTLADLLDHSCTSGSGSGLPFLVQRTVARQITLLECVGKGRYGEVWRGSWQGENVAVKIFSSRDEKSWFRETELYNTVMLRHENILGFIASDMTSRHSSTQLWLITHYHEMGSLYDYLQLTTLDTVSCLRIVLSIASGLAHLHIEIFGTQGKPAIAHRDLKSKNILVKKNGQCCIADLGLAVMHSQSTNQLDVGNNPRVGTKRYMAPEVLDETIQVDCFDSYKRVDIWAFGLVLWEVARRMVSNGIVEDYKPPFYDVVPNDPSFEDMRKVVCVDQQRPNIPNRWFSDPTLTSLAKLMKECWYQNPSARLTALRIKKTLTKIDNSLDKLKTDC

B1: BMP-7: Recombinant Human BMP-7 (R&D Systems); cytokine of the BMP family (protein)
chain: STGSKQRSQNRSKTPKNQEALRMANVAENSSSDQRQACKKHELYVSFRDLGWQDWIIAPEGYAAYYCEGECAFPLNSYMNATNHAIVQTLVHFINPETVPKPCCAPTQLNAISVLYFDDSSNVILKKYRNMVVRACGCH

What was measured:
mutant ACVR1 = assay: ID1 gene promoter luciferase reporter in U2OS cells with transfer of mutant ACVR1; format: cell-based, human; details: U2OS cells with transfer of each mutant ACVR1 of Table 1; 10 ng/mL, 20 hours
Method: A Firefly luciferase reporter plasmid having the promoter region of the ID1 gene, as a typical downstream gene of BMP (Genes Cells. 2002 September; 7(9):949-60), was mixed with a plasmid including different mutant ACVR1 genes reported to elicit FOP, and FuGene HD was used on U2OS cells for transfection. At 1 hour after transfection, human activin A (final concentration: 10 ng/mL) was added and the transfected cells were cultured for 20 hours. Next, the luciferase activity was measured according to the protocol provided with a Bright-Glo Luciferase Assay System (product of Promega Corp.). In FIG. 8, each sample name is listed according to Table 1 above, based on the amino acid mutation of ACVR1.

wild type ACVR1 = biological target: T1, wild type ACVR1; assay: ID1 gene promoter luciferase reporter in U2OS cells with transfer of wild type ACVR1; format: cell-based; details: 10 ng/mL, 20 hours
[1] = system: gene-corrected clone derived cells; assay: Differentiation to chondrocytes (sulfated glycosaminoglycan assay) of gene-corrected clone derived cells; format: cell-based, human; details: 100 ng/mL BMP-7 or 1 ng/mL TGF-β3, 6 days, vs untreated group
Method: Mesenchymal stem cell-like cells from a patient iPS cell line and a gene-corrected iPS cell clone were each prepared by the same method as Example 1. The mesenchymal stem cell-like cells were cultured for 6 days under the medium conditions used in the method of Umeda et al. (Sci. Rep., 2012, 2, 455), for differentiation to chondrocytes. During differentiation, 100 ng/mL of human activin A, 100 ng/mL of human BMP-7 or 1 ng/mL of human TGF-β3 (product of R&D Systems, Inc., trade name: Recombinant Human TGF-beta 3) was added and the effect of each factor on differentiation to chondrocytes was examined. The extent of differentiation to chondrocytes was measured with Alcian blue dye and a sulfated glycosaminoglycan assay kit (product of Biocolor, Ltd., trade name: Blyscan Glycosaminoglycan Assay Kit). In FIG. 4, the bar graph indicates the mean values for each treated group, and the error bars represent S.D.

Row | Molecule | transcription activity via ACVR1 (ID1 gene promoter luciferase) (mutant ACVR1) | transcription activity via ACVR1 (ID1 gene promoter luciferase) (wild type ACVR1) | cartilage induction (sulfated glycosaminoglycan assay) [1]
1 | human activin A: Recombinant Human/Mouse/Rat Activin A (R&D Systems); homodimer of inhibin βA chains | increased | not observed | 
2 | B1 |  |  | significantly enhanced
